According to patent publication US20210017281A1 (IMMUNEXT, published 2021):

Target: T1, human VISTA (human, UniProt Q9H7M9 33-194, limits assumed)
T1 construct: The ELISA text says only recombinant VISTA; also called recombinant VISTA
Assay: method not stated (Table 1, column Kd, M)

Binder	Kd [nM]
INX912 | VSTB84 (antibody, V domains shown) VH: QVQLVQSGAEVKKPGASVKVSCKASGYTFTSYWMHWVRQAPGQGLEWMGYINPSTGYPGYNQKFKDRVTMTRDTSTSTVYMELSSLRSEDTAVYYCARSYYDYDGGAWFAYWGQGTTVTVSS VL: DIVMTQTPLSLSVTPGQPASISCRASESVEYYGTSLMQWYLQKPGQPPQLLIYAASNVESGVPDRFSGSGSGTDFTLKISRVEAEDVGVYYCQQSRKVPSTFGQGTKLEIKR	2.03
INX910 | VSTB73 (antibody, V domains shown) VH: QVQLVQSGAEVKKPGASVKVSCKASGYTFTDYVISWVRQAPGQGLEWMGEIYPGSGNTYYYEKFKGRVTMTRDTSTSTVYMELSSLRSEDTAVYYCARVLVSVMDYWGQGTLVTVSS VL: EIVLTQSPDFQSVTPKEKVTITCSASSSINYITWYQQKPDQSPKLLIKDTSKLASGVPSRFSGSGSGTDFTLTINSLEAEDAATYYCHQRSSYPWTFGQGTRLEIKR	2.26
INX913 | VSTB85 (antibody, V domains shown) VH: QVQLVQSGAEVKKPGASVKVSCKASGYTFTDYAMHWVRQAPGQGLEWMGVIDTYYGNTNYNQKFKGRVTMTRDTSISTAYMELSRLRSDDTAVYYCARGGGDALDYWGQGTTVTVSS VL: DIQMTQSPSSLSASVGDRVTITCKASQSVSNDVVWYQQKPGKAPKLLIYYASNRYIGVPSRFSGSGSGTDFTFTISSLQPEDIATYYCQQGYTSLRTFGQGTKLEIKR	0.0378
INX903 | VSTB95 (antibody, V domains shown, INX903 = VSTB95 variable regions with wild-type human IgG2 constant regions) VH: EVQLVESGGGLVQPGGSLRLSCAASGFTFRNYGMSWVRQAPGKGLEWVASIISGGSYTYYPDSVKGRFTISRDNAKNSLYLQMNSLRAEDTAVYYCARIYDHDGDYYAMDYWGQGTTVTVSS VL: DIVMTQSPLSLPVTPGEPASISCRSSQSIVHSNGNTYLEWYLQKPGQSPQLLIYKVSNRFSGVPDRFSGSGSGTDFTLKISRVEAEDVGVYYCFQGSHVPWTFGQGTKLEIK	0.126
INX905 | VSTB53 (antibody, V domains shown, INX name = the VSTB variable regions with human IgG2 constant regions) VH: QVQLVQSGAEVKKPGASVKVSCKASGYTFTHYTIHWVRQAPGQGLEWMGYIIPSSGYSEYNQKFKDRVTMTRDTSTSTVYMELSSLRSEDTAVYYCARGAYDDYYDYYAMDYWGQGTLVTVSS VL: DIVMTQSPLSLPVTPGEPASISCRSSQTIVHSNGNTYLEWYLQKPGQSPQLLIYKVSNRFSGVPDRFSGSGSGTDFTLKISRVEAEDVGVYYCFQASHVPWTFGQGTKLEIK	0.0264
INX909 | VSTB67 (antibody, V domains shown) VH: QVQLVQSGAEVKKPGASVKVSCKASDYIFSSYWIQWVRQAPGQGLEWMGEIFPGSGGTNYNEKFKGRVTMTRDTSTSTVYMELSSLRSEDTAVYYCARAIYYDYDMYYFDSWGQGTTVTVSS VL: DIQMTQSPSSLSASVGDRVTITCRASQDISSYLNWYQQKPGKVPKLLIYYTSRLHSGVPSRFSGSGSGTDFTLTISSLQPEDVATYYCQHVNTLPWTFGQGTKLEIKR	0.0629
INX919 | VSTB115 (antibody, V domains shown) VH: QVQLVQSGAEVKKPGSSVKVSCKASGGTFSSYAISWVRQAPGQGLEWMGGIIPIFGTANYAQKFQGRVTITADESTSTAYMELSSLRSEDTAVYYCARSSYGWSYEFDYWGQGTLVTVSS VL: DIQMTQSPSSLSASVGDRVTITCRASQSIRTYLNWYQQKPGKAPKLLIYAASSLQSGVPSRFSGSGSGTDFTLTISSLQPEDFATYYCQQAYSNPITFGQGTKVEIKR	0.145
VSTB114 (antibody, V domains shown) VH: QVQLVQSGAEVKKPGSSVKVSCKASGGTFSSYAISWVRQAPGQGLEWMGGIIPIFGTANYAQKFQGRVTITADESTSTAYMELSSLRSEDTAVYYCARHSIGWVAELDYWGQGTLVTVSS VL: DIQMTQSPSSLSASVGDRVTITCRASQSIATSLNWYQQKPGKAPKLLIYYASSLQSGVPSRFSGSGSGTDFTLTISSLQPEDFATYYCQQGAYYPLTFGQGTKVEIKR	0.152
VSTB116 (antibody, V domains shown) VH: QVQLVQSGAEVKKPGSSVKVSCKASGGTFSSYAISWVRQAPGQGLEWMGGIIPIFGTANYAQKFQGRVTITADESTSTAYMELSSLRSEDTAVYYCARSSYGWSYEFDYWGQGTLVTVSS VL: DIQMTQSPSSLSASVGDRVTITCRASQSINTNLNWYQQKPGKAPKLLIYAASSLQSGVPSRFSGSGSGTDFTLTISSLQPEDFATYYCQQARDTPITFGQGTKVEIKR	0.213
VSTB109 (antibody, V domains shown) VH: QVQLVQSGAEVKKPGSSVKVSCKASGGTFSSYAISWVRQAPGQGLEWMGGIIPIFGTANYAQKFQGRVTITADESTSTAYMELSSLRSEDTAVYYCARSSYGWSYEFDYWGQGTLVTVSS VL: DIQMTQSPSSLSASVGDRVTITCRASQSIATYLNWYQQKPGKAPKLLIYAASSLQSGVPSRFSGSGSGTDFTLTISSLQPEDFATYYCQQNHNRPITFGQGTKVEIKR	0.102
VSTB105 (antibody, V domains shown) VH: QVQLVQSGAEVKKPGSSVKVSCKASGGTFSSYAISWVRQAPGQGLEWMGGIIPIFGTANYAQKFQGRVTITADESTSTAYMELSSLRSEDTAVYYCARSSYGWSYEFDYWGQGTLVTVSS VL: DIQMTQSPSSLSASVGDRVTITCRASQSIATNLNWYQQKPGKAPKLLIYAASSLQSGVPSRFSGSGSGTDFTLTISSLQPEDFATYYCQQNDDRPITFGQGTKVEIKR	0.115
VSTB108 (antibody, V domains shown) VH: QVQLVQSGAEVKKPGSSVKVSCKASGGTFSSYAISWVRQAPGQGLEWMGGIIPIFGTANYAQKFQGRVTITADESTSTAYMELSSLRSEDTAVYYCARNTFGWSGELDYWGQGTLVTVSS VL: DIQMTQSPSSLSASVGDRVTITCRASQSISNRLNWYQQKPGKAPKLLIYSASSLQSGVPSRFSGSGSGTDFTLTISSLQPEDFATYYCQQNHDNPITFGQGTKVEIKR	0.494
INX915 | VSTB106 (antibody, V domains shown) VH: QVQLVQSGAEVKKPGSSVKVSCKASGGTFSSYAISWVRQAPGQGLEWMGGIIPIFGTANYAQKFQGRVTITADESTSTAYMELSSLRSEDTAVYYCARSSYGWSYEFDYWGQGTLVTVSS VL: DIQMTQSPSSLSASVGDRVTITCRASQSIRTDLNWYQQKPGKAPKLLIYSASSLQSGVPSRFSGSGSGTDFTLTISSLQPEDFATYYCQQNERTPITFGQGTKVEIKR	0.167
INX917 | VSTB110 (antibody, V domains shown) VH: QVQLVQSGAEVKKPGSSVKVSCKASGGTFSSYAISWVRQAPGQGLEWMGGIIPIFGTANYAQKFQGRVTITADESTSTAYMELSSLRSEDTAVYYCARHSIGWVAELDYWGQGTLVTVSS VL: DIQMTQSPSSLSASVGDRVTITCRASQSINTDLNWYQQKPGKAPKLLIYAASSLQSGVPSRFSGSGSGTDFTLTISSLQPEDFATYYCQQGASDPITFGQGTKVEIKR	0.202
INX918 | VSTB113 (antibody, V domains shown) VH: QVQLVQSGAEVKKPGSSVKVSCKASGGTFSSYAISWVRQAPGQGLEWMGGIIPIFGTANYAQKFQGRVTITADESTSTAYMELSSLRSEDTAVYYCARHSIGWVAELDYWGQGTLVTVSS VL: DIQMTQSPSSLSASVGDRVTITCRASQSIATDLNWYQQKPGKAPKLLIYAASSLQSGVPSRFSGSGSGTDFTLTISSLQPEDFATYYCQQAHWYPLTFGQGTKVEIKR	0.0433
VSTB111 (antibody, V domains shown) VH: QVQLVQSGAEVKKPGSSVKVSCKASGGTFSSYAISWVRQAPGQGLEWMGGIIPIFGTANYAQKFQGRVTITADESTSTAYMELSSLRSEDTAVYYCARSSYGWSYEFDYWGQGTLVTVSS VL: DIQMTQSPSSLSASVGDRVTITCRASQSINTDLNWYQQKPGKAPKLLIYAASSLQSGVPSRFSGSGSGTDFTLTISSLQPEDFATYYCQQNRGSPITFGQGTKVEIKR	0.171
INX916 | VSTB107 (antibody, V domains shown) VH: QVQLVQSGAEVKKPGSSVKVSCKASGGTFSSYAISWVRQAPGQGLEWMGGIIPIFGTANYAQKFQGRVTITADESTSTAYMELSSLRSEDTAVYYCARSSYGWSYEFDYWGQGTLVTVSS VL: DIQMTQSPSSLSASVGDRVTITCRASQSINNDLNWYQQKPGKAPKLLIYAASSLQSGVPSRFSGSGSGTDFTLTISSLQPEDFATYYCQQNRATPITFGQGTKVEIKR	0.089
VSTB49 (antibody, V domains shown) VH: QVQLVQSGAEVKKPGASVKVSCKASGYTFPSHTIHWVRQAPGQRLEWMGSIYPFIDSTIYNQKFKDRVTITRDTSASTAYMELSSLRSEDTAVYYCARGIRGYTMDYWGQGTLVTVSS VL: DVVMTQSPLSLPVTLGQPASISCRASESVDNYGLSFMNWFQQRPGQSPRRLIYGASNQGSGVPDRFSGSGSGTDFTLKISRVEAEDVGVYYCQQSKEVPYTFGQGTKLEIKR	0.507
INX911 | VSTB76 (antibody, V domains shown) VH: QVQLVQSGAEVKKPGASVKVSCKASGYTFTDYWINWVRQAPGQGLEWMGNIYPSHSYTNYNQEFKDRVTMTRDTSTSTVYMELSSLRSEDTAVYYCARGGYRYPYYAMDYWGQGTTVTVSS VL: AIQLTQSPSSLSASVGDRVTITCGASENIYGALNWYQQKPGKAPKLLIYGATNLADGVPSRFSGSGSGTDFTLTISSLQPEDFATYYCQNVLSTPYTFGQGTKLEIKR	1.31
VSTB100 (antibody, V domains shown) VH: EVQLVQSGAEVKKPGESLKISCKGSGYSFTSYWIGWVRQMPGKGLEWMGIIYPGDSDTRYSPSFQGQVTISADKSISTAYLQWSSLKASDTAMYYCARDVSSFYGYSPMFDYWGQGTLVTVSS VL: EIVLTQSPATLSLSPGERATLSCRASQSVSSYLAWYQQKPGQAPRLLIYDASNRATGIPARFSGSGSGTDFTLTISSLEPEDFAVYYCQQRSNWPLTFGQGTKVEIKR	1.48
VSTB104 (antibody, V domains shown) VH: EVQLVQSGAEVKKPGESLKISCKGSGYSFTSYWIGWVRQMPGKGLEWMGIIYPGDSDTRYSPSFQGQVTISADKSISTAYLQWSSLKASDTAMYYCARDANSFYSAASIFDYWGQGTLVTVSS VL: not shown	0.675
VSTB51 (antibody, V domains shown) VH: EVQLVESGGGLVQPGGSLRLSCAASGFTFSSYTMSWVRQAPGKGLEWVATISNSGSYTYYLDSVKGRFTISRDNAKNSLYLQMNSLRAEDTAVYYCARDTVLSPFDYWGQGTTVTVSS VL: EIVLTQSPDFQSVTPKEKVTITCSATSSISYMHWYQQKPDQSPKLLIKDTSELASGVPSRFSGSGSGTDFTLTINSLEAEDAATYYCHQRSSFTFGQGTKLEIKR	0.104
INX904 | VSTB103 (antibody, V domains shown, INX name = the VSTB variable regions with human IgG2 constant regions) VH: EVQLVQSGAEVKKPGESLKISCKGSGYSFTSYWIGWVRQMPGKGLEWMGIIYPGDSDTRYSPSFQGQVTISADKSISTAYLQWSSLKASDTAMYYCARDDALYGGYYLDYWGQGTLVTVSS VL: not shown	0.636
